The experiment has as its target human CCR2 (CC-Chemokine Receptor 2) (human) (UniProt P41597). Description: cell-based or functional assay.

human CCR2 (CC-Chemokine Receptor 2) (human), sequence (P41597 whole entry): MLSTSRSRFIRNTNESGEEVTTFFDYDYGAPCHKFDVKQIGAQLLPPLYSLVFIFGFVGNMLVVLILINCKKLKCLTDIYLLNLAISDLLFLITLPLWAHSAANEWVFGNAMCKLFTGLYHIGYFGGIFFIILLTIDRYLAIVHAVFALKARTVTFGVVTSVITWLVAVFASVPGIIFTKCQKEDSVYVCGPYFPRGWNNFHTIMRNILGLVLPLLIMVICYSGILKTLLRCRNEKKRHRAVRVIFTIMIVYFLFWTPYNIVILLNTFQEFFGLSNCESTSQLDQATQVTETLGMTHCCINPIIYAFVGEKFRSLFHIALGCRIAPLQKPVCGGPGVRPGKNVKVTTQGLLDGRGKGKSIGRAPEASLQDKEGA

B1: MLN1202 (Takeda) (antibody, INN chains, looked up, V domains shown)
VH: EVQLVESGGGLVKPGGSLRLSCAASGFTFSAYAMNWVRQAPGKGLEWVGRIRTKNNNYATYYADSVKDRFTISRDDSKNTLYLQMNSLKTEDTAVYYCTTFYGNGVWGQGTLVTVSS
VL: DVVMTQSPLSLPVTLGQPASISCKSSQSLLDSDGKTFLNWFQQRPGQSPRRLIYLVSKLDSGVPDRFSGSGSGTDFTLKISRVEAEDVGVYYCWQGTHFPYTFGQGTRLEIK
For B1, the IC50 in calcium flux assay using human THP-1 cells, ligand MCP-1 (2.5 nM) was 0.25 nM; the IC50 in calcium flux assay using human THP-1 cells, ligand MCP-3 (22 nM) is 0.11 nM; the IC50 in calcium flux assay using human THP-1 cells, ligand MCP-5 (0.43 nM) is 0.18 nM; the IC50 in chemotaxis assay using human THP-1 cells, ligand MCP-1 (3 nM) worked out at 0.31 nM. The same molecule returned an IC50 in chemotaxis assay using human THP-1 cells, ligand MCP-2 (6.7 nM) of 0.46 nM; an IC50 in chemotaxis assay using human THP-1 cells, ligand MCP-3 (1.1 nM) of 1.83 nM; an IC50 in chemotaxis assay using human THP-1 cells, ligand MCP-4 (35 nM) of 0.84 nM; an IC50 in chemotaxis assay using human THP-1 cells, ligand MCP-5 (0.65 nM) of 0.37 nM. This molecule displayed an IC50 on MCP-1 induced THP-1 cell migration of 0.309 nM, an IC50 on MCP-2 induced THP-1 cell migration of 0.459 nM, an IC50 on MCP-3 induced THP-1 cell migration of 1.83 nM and an IC50 on MCP-4 induced THP-1 cell migration of 0.843 nM. For the same molecule, the IC50 on mouse MCP-5 induced THP-1 cell migration came to 0.368 nM.

Values taken from patent US20130344070A1.
